The target in experiment [1] is bovine serum albumin (BSA) (bovine, UniProt P02769 25-607). As to the kind of experiment: western blotting.
The target in experiment [2] is T1, antigen comprising the amino acid sequence YKDWSEWGKAC (SEQ ID NO: 12).
T1 construct: Any carrier or conjugate is not described; also called screening antigen
T1 peptide: YKDWSEWGKAC
Briefly: ELISA of hybridoma supernatants on the antigen comprising SEQ ID NO: 12. (In an ELISA, binding on a coated surface is turned into a signal by an enzyme label.)

Sequence of bovine serum albumin (BSA) (P02769 25-607 limits assumed): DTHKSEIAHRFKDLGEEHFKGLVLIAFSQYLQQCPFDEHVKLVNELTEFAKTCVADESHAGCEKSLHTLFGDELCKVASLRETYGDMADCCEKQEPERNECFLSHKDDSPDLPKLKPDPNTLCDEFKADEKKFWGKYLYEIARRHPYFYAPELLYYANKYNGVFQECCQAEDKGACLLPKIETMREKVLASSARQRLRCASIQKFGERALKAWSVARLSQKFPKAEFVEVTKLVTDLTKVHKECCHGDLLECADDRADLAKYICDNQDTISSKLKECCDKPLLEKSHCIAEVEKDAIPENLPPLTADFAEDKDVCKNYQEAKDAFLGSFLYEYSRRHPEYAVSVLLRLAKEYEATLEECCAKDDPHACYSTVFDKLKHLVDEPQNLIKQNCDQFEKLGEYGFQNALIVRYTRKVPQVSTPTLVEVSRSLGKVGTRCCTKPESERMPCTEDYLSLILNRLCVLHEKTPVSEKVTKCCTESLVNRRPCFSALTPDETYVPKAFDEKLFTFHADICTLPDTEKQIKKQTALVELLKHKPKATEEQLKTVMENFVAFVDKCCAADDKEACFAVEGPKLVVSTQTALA

B1: anti-DENV NS1 monoclonal antibody mAb 33D2 (antibody, V domains shown)
VH: DVQLQESGPGLVKPSQSLSLTCTVTGYSITSDYAWNWIRQFPGNKLEWMGFISYSGSARYNPSLISRTSITRDTSKNQFFLHLNSVTTEDTAIYYCARVERLGYFDVWGAGTTVTVSS
VL: DIVLTQSPASLAVSLGQRASISCKASQSVDYDGDSYMHWYQQKPGQPFKLLIYAASNLESGIPARFSGSGSGTVFTLNIHPVEEEDAATYYCQQSNEDPTFGGGTRLEIKR
notes: also called anti-NS1 mAb 33D2; anti-DENV antibody 33D2
B1: the values for the binding result in experiment [1] and in experiment [2] were “no binding” and “binds”, respectively.

For the origin of these results see patent US20200087383A1 (NATIONAL CHENG KUNG UNIVERSITY, published 2020).
